The record followed here is paper doi:10.1101/807917.

The test has as its target E. coli 30S initiation complex (30S IC) lacking IF2 and IF3 (E. coli) (UniProt P69222). The test is described as follows: FRET or BRET. For orientation: In BRET a luciferase serves as donor, and the signal depends on an acceptor being close.
Sequence of UniProt P69222 (P69222 whole entry, looked up, one chain of several): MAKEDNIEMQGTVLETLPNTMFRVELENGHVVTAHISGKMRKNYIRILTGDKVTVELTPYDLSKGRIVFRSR

As for “Cy5-labeled Initiation Factor 2 (IF2), E. coli (from UniProt P0A705 1-890) (natural protein)”, the fold change of Kd, IF2 bound to ppGpp relative to IF2 bound to GTP came out at 10 fold.
